Experimental data published in the supplement of paper PMC5998384.

What was measured:
HeLa Kyoto [1] = test: melting temperature (median over replicates), in situ; higher = more thermally stable
HeLa Kyoto [2] = test: solubility change mitosis vs G1/S (difference of NP-40 vs SDS log2 ratios) (log2 ratio difference); higher = more soluble in mitosis
HeLa Kyoto [3] = test: solubility in G1/S (NP-40 vs SDS abundance) (log2 ratio); higher = more soluble; settings: cell cycle stage: G1/S
HeLa Kyoto [4] = test: thermal stability score vs G1/S (z-score of summed log2 fold changes over temperatures); higher = more thermally stable than in G1/S
[5] = cell cycle stage: early G1 (4.5 h after nocodazole release)
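Throughout, for melting temperature (median over replicates), in situ: HeLa Kyoto cells synchronized by double thymidine or nocodazole block, proteins quantified by TMT10plex mass spectrometry, three independent biological replicates.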
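Throughout, for solubility change mitosis vs G1/S (difference of NP-40 vs SDS log2 ratios): synchronized HeLa Kyoto cells (double thymidine block for G1/S, nocodazole release for mitosis), protein amounts in NP-40 versus SDS lysates quantified by mass spectrometry, three biological replicates.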
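Throughout, for solubility in G1/S (NP-40 vs SDS abundance): HeLa Kyoto cells arrested at G1/S by double thymidine block, proteins quantified by TMT10plex mass spectrometry in mild NP-40 versus SDS extracts, three biological replicates.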
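Throughout, for thermal stability score vs G1/S (z-score of summed log2 fold changes over temperatures): synchronized HeLa Kyoto cells, proteins quantified by TMT10plex mass spectrometry, three biological replicates, mitosis taken 0.5 h after nocodazole release, G1/S directly after double thymidine block.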

Sequence	melting temperature (HeLa Kyoto [1]; cell cycle stage: G1/S)	melting temperature (HeLa Kyoto [1]; cell cycle stage: mitosis)	solubility change mitosis (log2) (HeLa Kyoto [2])	solubility in G1/S (log2) (HeLa Kyoto [3])	thermal stability score (HeLa Kyoto [4]; [5])	thermal stability score (HeLa Kyoto [4]; cell cycle stage: mitosis)
MSEDLAKQLASYKAQLQQVEAALSGNGENEDLLKLKKDLQEVIELTKDLLSTQPSETLASSDSFASTQPTHSWKVGDKCMAVWSEDGQCYEAEIEEIDEENGTAAITFAGYGNAEVTPLLNLKPVEEGRKAKEDSGNKPMSKKEMIAQQREYKKKKALKKAQRIKELEQEREDQKVKWQQFNNRAYSKNKKGQVKRSIFASPESVTGKVGVGTCGIADKPMTQYQDTSKYNVRHLMPQ [SMNDC1]	57.7 °C	55.9 °C	0.405	0.271	-2.66	-6.93
MSELEQLRQEAEQLRNQIQDARKACNDATLVQITSNMDSVGRIQMRTRRTLRGHLAKIYAMHWGYDSRLLVSASQDGKLIIWDSYTTNKMHAIPLRSSWVMTCAYAPSGNYVACGGLDNICSIYNLKTREGNVRVSRELPGHTGYLSCCRFLDDSQIVTSSGDTTCALWDIETAQQTTTFTGHSGDVMSLSLSPDMRTFVSGACDASSKLWDIRDGMCRQSFTGHVSDINAVSFFPNGYAFATGSDDATCRLFDLRADQELLLYSHDNIICGITSVAFSKSGRLLLAGYDDFNCNVWDTLKGDRAGVLAGHDNRVSCLGVTDDGMAVATGSWDSFLRIWN [GNB4]	55.6 °C	56.7 °C	-0.13	-0.287	-1.5	-0.567
MSERCCSRYSSGASIGCTPTSTQAKMVSKRIAQETFDAAVRENIEEFAMGPEEAVKEAVEQFESQGVDLSNIVKTAPKVSADGSQEPTHDILQMLSDLQESVASSRPQEVSAYLTRFCDQCKQDKACRFLAAQKGAYPIIFTAWKLATAGDQGLLLQSLNALSVLTDGQPDLLDAQGLQLLVATLTQNADEADLTCSGIRCVRHACLKHEQNRQDLVKAGVLPLLTGAITHHGHHTDVVREACWALRVMTFDDDIRVPFGHAHNHAKMIVQENKGLKVLIEATKAFLDNPGILSELCGTLSRLAIRNEFCQEVVDLGGLSILVSLLADCNDHQMRDQSGVQELVKQVLSTLRAIAGNDDVKDAIVRAGGTESIVAAMTQHLTSPQVCEQSCAALCFLALRKPDNSRIIVEGGGAVAALQAMKAHPQKAGVQKQACMLIRNLVAHGQAFSKPILDLGAEALIMQARSAHRDCEDVAKAALRDLGCHVELRELWTGQRGNLAP [ARMC6]	46.8 °C	47 °C	-0.0993	0.319	0.787	2.44
MSERKVLNKYYPPDFDPSKIPKLKLPKDRQYVVRLMAPFNMRCKTCGEYIYKGKKFNARKETVQNEVYLGLPIFRFYIKCTRCLAEITFKTDPENTDYTMEHGATRNFQAEKLLEEEEKRVQKEREDEELNNPMKVLENRTKDSKLEMEVLENLQELKDLNQRQAHVDFEAMLRQHRLSEEERRRQQQEEDEQETAALLEEARKRRLLEDSDSEDEAAPSPLQPALRPNPTAILDEAPKPKRKVEVWEQSVGSLGSRPPLSRLVVVKKAKADPDCSNGQPQAAPTPGAPQNRKEANPTPLTPGASSLSQLGAYLDSDDSNGSN [CCDC94]	51.6 °C	52.3 °C	-0.0138	0.299	0.296	0.409
